These are literature values, as cited in PMC9414616.

What is called Kd is a measure of binding affinity in units of concentration.

The target of the data set is NTSR2 (UniProt O95665).
Chain of UniProt O95665 (O95665 whole entry): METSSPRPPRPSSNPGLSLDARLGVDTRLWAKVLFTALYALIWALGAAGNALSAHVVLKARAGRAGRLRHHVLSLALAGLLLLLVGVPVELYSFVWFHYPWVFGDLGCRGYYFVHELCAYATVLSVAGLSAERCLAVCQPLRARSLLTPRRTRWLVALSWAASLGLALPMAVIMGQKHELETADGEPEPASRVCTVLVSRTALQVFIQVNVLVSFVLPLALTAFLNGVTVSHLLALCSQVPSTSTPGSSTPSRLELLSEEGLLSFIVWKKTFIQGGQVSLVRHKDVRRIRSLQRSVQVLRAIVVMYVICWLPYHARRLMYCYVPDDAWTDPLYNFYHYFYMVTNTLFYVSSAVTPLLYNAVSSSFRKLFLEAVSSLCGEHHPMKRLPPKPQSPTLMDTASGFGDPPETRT

Take neurotensin (from UniProt P30990): the Kd is 4 nM.
